Results from article PMC2950913 (Nature structural & molecular biology, 2010).

Target: T1, RAD51 recombinase (human, UniProt Q06609 1-339)
T1 sequence: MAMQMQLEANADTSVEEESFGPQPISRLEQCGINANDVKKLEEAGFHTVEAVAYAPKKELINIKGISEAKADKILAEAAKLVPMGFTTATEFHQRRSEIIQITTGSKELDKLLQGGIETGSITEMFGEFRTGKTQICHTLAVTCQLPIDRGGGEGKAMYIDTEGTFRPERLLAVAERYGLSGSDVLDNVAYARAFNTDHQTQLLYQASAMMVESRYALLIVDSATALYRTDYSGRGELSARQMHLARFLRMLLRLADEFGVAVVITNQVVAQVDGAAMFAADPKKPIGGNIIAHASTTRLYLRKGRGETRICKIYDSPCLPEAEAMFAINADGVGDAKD
Assay: pull-down

B1: GST-tagged PALB2 1-184 fragment (domain or fragment)
chain: MDEPPGKPLSCEEKEKLKEKLAFLKREYSKTLARLQRAQRAEKIKHSIKKTVEEQDCLSQQDLSPQLKHSEPKNKICVYDKLHIKTHLDEETGEKTSITLDVGPESFNPGDGPGGLPIQRTDDTQEHFPHRVSDPSGEQKQKLPSRRKKQQKRTFISQERDCVFGTDSLRLSGKRLKEQEEISS
- binding result: binds
